Source: IntAct's records for PubMed 29892012

B1: Abl interactor 2 (Homo sapiens), Q9NYB9 (parent)
chain: MAELQMLLEEEIPGGRRALFDSYTNLERVADYCENNYIQSADKQRALEETKAYTTQSLASVAYLINTLANNVLQMLDIQASQLRRMESSINHISQTVDIHKEKVARREIGILTTNKNTSRTHKIIAPANLERPVRYIRKPIDYTILDDIGHGVKWLLRFKVSTQNMKMGGLPRTTPPTQKPPSPPMSGKGTLGRHSPYRTLEPVRPPVVPNDYVPSPTRNMAPSQQSPVRTASVNQRNRTYSSSGSSGGSHPSSRSSSRENSGSGSVGVPIAVPTPSPPSVFPAPAGSAGTPPLPATSASAPAPLVPATVPSSTAPNAAAGGAPNLADGFTSPTPPVVSSTPPTGHPVQFYSMNRPASRHTPPTIGGSLPYRRPPSITSQTSLQNQMNGGPFYSQNPVSDTPPPPPPVEEPVFDESPPPPPPPEDYEEEEAAVVEYSDPYAEEDPPWAPRSYLEKVVAIYDYTKDKEDELSFQEGAIIYVIKKNDDGWYEGVMNGVTGLFPGNYVESIMHYSE
partner: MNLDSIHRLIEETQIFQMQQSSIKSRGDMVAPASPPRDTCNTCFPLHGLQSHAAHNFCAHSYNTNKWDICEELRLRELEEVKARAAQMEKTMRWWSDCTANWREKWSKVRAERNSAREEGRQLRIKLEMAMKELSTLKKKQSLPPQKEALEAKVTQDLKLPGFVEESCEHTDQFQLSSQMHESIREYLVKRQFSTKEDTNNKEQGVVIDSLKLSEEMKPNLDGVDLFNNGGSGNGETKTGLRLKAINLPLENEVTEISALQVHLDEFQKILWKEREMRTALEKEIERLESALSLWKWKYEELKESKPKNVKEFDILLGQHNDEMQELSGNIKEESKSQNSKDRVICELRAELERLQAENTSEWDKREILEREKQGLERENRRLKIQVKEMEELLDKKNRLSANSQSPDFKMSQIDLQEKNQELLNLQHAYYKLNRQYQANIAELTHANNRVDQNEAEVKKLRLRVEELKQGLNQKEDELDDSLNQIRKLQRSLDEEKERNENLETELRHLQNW
B2: Cilium assembly protein DZIP1L (Homo sapiens), Q8IYY4 (parent)
chain: MQSPAATAEGLSGPLFGAYTFPTFKFQPRHDSMDWRRISTLDVDRVARELDVATLQENIAGITFCNLDREVCSRCGQPVDPALLKVLRLAQLIIEYLLHCQDCLSASVAQLEARLQTSLGQQQRGQQELGRQADELKGVREESRRRRKMISTLQQLLMQTGTHSYHTCHLCDKTFMNATFLRGHIQRRHAGVAEGGKQKKQEQPVEEVLEELRAKLKWTQGELEAQREAERQRQLQEAELIHQREIEAKKEFDKWKEQEWTKLYGEIDKLKKLFWDEFKNVAKQNSTLEEKLRALQSHSVMESKLGSLRDEESEEWLRQARELQALREKTEIQKTEWKRKVKELHEEHMAEKKELQEENQRLQASLSQDQKKAAAQSQCQISTLRAQLQEQARIIASQEEMIQSLSLRKVEGIHKVPKAVDTEEDSPEEEMEDSQDEQHKVLAALRRNPTLLKHFRPILEDTLEEKLESMGIRKDAKGISIQTLRHLESLLRVQREQKARKFSEFLSLRGKLVKEVTSRAKERQENGAVVSQPDGQPSVKSQQSTLVTREAQPKTRTLQVALPSTPAEPPPPTRQSHGSHGSSLTQVSAPAPRPGLHGPSSTPPSSGPGMSTPPFSSEEDSEGDRVQRVSLQPPKVPSRMVPRPKDDWDWSDTETSEENAQPPGQGSGTLVQSMVKNLEKQLEAPAKKPAGGVSLFFMPNAGPQRAATPGRKPQLSEDESDLEISSLEDLPLDLDQREKPKPLSRSKLPEKFGTGPQSSGQPRVPAW
B3: Tumor suppressor candidate 2 (Homo sapiens), O75896 (parent)
chain: MGASGSKARGLWPFASAAGGGGSEAAGAEQALVRPRGRAVPPFVFTRRGSMFYDEDGDLAHEFYEETIVTKNGQKRAKLRRVHKNLIPQGIVKLDHPRIHVDFPVILYEV
B4: Abl interactor 2 (Homo sapiens), Q9NYB9 (parent)
chain: B1 chain
partner: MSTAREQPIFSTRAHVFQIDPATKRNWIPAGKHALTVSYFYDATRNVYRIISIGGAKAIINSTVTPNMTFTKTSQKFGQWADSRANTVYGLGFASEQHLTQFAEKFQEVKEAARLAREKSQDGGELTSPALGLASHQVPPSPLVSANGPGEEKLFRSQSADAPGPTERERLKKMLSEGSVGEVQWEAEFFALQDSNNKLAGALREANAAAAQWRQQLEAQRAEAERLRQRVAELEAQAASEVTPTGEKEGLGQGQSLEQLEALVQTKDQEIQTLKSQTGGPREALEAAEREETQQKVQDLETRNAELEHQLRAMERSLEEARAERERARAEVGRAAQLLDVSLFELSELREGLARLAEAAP
B5: Abl interactor 2 (Homo sapiens), Q9NYB9 (parent)
chain: B1 chain
partner: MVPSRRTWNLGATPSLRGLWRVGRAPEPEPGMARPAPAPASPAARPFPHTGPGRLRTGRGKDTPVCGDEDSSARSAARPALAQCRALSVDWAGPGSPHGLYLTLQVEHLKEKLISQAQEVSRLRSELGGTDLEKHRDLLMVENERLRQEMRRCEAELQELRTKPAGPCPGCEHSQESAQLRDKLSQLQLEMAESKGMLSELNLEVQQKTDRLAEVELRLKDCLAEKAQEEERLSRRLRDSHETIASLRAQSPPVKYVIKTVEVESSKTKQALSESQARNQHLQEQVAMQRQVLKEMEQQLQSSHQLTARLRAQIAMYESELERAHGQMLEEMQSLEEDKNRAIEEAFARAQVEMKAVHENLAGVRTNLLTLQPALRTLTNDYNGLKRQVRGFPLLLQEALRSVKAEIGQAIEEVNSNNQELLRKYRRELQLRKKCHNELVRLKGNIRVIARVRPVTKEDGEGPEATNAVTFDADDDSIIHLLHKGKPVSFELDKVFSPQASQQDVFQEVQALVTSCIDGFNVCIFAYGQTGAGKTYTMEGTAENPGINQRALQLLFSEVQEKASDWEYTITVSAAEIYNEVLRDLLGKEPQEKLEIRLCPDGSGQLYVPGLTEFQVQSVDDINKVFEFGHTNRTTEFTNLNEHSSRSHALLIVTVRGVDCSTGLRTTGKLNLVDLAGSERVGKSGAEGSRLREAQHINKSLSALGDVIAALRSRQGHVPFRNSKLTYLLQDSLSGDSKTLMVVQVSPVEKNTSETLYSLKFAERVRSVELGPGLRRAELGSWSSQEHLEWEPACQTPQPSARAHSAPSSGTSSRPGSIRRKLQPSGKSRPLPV
B6: Histone-lysine N-methyltransferase SMYD1 (Homo sapiens), Q8NB12 (parent)
chain: MTIGRMENVEVFTAEGKGRGLKATKEFWAADIIFAERAYSAVVFDSLVNFVCHTCFKRQEKLHRCGQCKFAHYCDRTCQKDAWLNHKNECSAIKRYGKVPNENIRLAARIMWRVEREGTGLTEGCLVSVDDLQNHVEHFGEEEQKDLRVDVDTFLQYWPPQSQQFSMQYISHIFGVINCNGFTLSDQRGLQAVGVGIFPNLGLVNHDCWPNCTVIFNNGNHEAVKSMFHTQMRIELRALGKISEGEELTVSYIDFLNVSEERKRQLKKQYYFDCTCEHCQKKLKDDLFLGVKDNPKPSQEVVKEMIQFSKDTLEKIDKARSEGLYHEVVKLCRECLEKQEPVFADTNIYMLRMLSIVSEVLSYLQAFEEASFYARRMVDGYMKLYHPNNAQLGMAVMRAGLTNWHAGNIEVGHGMICKAYAILLVTHGPSHPITKDLEAMRVQTEMELRMFRQNEFMYYKMREAALNNQPMQVMAEPSNEPSPALFHKKQ
B7: Abl interactor 2 (Homo sapiens), Q9NYB9 (parent)
chain: B1 chain
partner: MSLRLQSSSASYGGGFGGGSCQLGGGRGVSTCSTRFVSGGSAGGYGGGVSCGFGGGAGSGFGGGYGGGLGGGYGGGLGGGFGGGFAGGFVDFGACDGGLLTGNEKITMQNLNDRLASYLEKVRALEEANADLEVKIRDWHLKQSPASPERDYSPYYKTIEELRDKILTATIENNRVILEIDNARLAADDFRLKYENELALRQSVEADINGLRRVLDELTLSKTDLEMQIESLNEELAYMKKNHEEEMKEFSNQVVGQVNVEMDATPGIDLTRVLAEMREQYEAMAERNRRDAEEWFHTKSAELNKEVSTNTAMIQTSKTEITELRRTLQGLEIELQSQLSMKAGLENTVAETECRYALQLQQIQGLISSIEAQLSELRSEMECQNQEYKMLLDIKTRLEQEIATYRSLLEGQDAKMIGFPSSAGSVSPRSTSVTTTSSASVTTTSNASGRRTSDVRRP

Variants of: B1
Conditions: with CCDC102B

Variant	effect of a mutation on the interaction
E202K	with no effect

Variants of: B1
Conditions: with CCDC102B
Remark: another data set of the same source

Variant	effect of a mutation on the interaction
R373C	with no effect

Variants of: B2
Conditions: with cep76_human CEP76, Q8TAP6
Chain of cep76_human CEP76, Q8TAP6 (Q8TAP6 whole entry): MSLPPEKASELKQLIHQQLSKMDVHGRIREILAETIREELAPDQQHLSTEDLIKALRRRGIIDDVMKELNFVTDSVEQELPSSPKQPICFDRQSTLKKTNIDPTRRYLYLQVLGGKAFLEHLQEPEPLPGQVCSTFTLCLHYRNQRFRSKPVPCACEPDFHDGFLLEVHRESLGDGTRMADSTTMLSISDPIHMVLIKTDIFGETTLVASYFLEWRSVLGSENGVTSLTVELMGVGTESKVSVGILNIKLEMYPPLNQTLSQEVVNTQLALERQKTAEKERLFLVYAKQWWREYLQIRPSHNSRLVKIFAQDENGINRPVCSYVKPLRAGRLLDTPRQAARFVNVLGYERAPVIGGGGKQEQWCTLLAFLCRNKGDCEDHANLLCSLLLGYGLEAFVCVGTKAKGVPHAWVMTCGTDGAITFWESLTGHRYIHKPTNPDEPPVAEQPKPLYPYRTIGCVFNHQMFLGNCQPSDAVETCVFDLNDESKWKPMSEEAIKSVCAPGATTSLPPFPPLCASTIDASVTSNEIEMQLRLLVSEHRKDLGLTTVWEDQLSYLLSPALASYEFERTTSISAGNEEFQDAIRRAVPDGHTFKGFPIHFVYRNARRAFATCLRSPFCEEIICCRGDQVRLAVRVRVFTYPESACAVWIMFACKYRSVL

Variant	effect of a mutation on the interaction
R643W	with no effect

Variants of: B3
Conditions: with rbpms_human RBPMS

Variant	effect of a mutation on the interaction
R76Q	with no effect

Variants of: B3
Conditions: with mdfi_human MDFI

Variant	effect of a mutation on the interaction
R76Q	disrupting interaction strength

Variants of: B4
Conditions: with home3_human HOMER3, Q9NSC5

Variant	effect of a mutation on the interaction
E202K	with no effect

Variants of: B4
Conditions: with home3_human HOMER3, Q9NSC5
Remark: another data set of the same source

Variant	effect of a mutation on the interaction
R373C	with no effect

Variants of: B5
Conditions: with kifc3_human KIFC3, Q9BVG8

Variant	effect of a mutation on the interaction
R373C	disrupting interaction strength

Variants of: B5
Conditions: with kifc3_human KIFC3, Q9BVG8
Remark: another data set of the same source

Variant	effect of a mutation on the interaction
E202K	with no effect

Variants of: B6
Conditions: with bhe40_human BHLHE40, O14503
Chain of bhe40_human BHLHE40, O14503 (O14503 whole entry): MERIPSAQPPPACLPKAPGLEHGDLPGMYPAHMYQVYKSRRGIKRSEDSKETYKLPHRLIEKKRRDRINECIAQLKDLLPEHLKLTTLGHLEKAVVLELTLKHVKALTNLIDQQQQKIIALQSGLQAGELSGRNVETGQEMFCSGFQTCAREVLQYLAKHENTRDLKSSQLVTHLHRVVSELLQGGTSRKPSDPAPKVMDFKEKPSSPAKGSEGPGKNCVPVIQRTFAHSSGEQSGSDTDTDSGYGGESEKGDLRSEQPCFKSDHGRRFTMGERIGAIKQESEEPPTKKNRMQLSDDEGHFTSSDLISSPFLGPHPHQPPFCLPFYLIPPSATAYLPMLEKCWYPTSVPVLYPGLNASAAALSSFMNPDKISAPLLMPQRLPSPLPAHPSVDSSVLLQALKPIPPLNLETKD

Variant	effect of a mutation on the interaction
Q443R	with no effect

Variants of: B7
Conditions: with KRT13, P13646

Variant	effect of a mutation on the interaction
E202K	with no effect
